Data as given in the nanobody polyreactivity screen of Harvey et al. (2022).

Assay: yeast display, Sf9 membrane polyspecificity reagent, FACS + sequencing; frameworks hold sequencing errors
Procedure, shortened: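 Galactose-induced (36–48 hours) yeast carrying a synthetic nanobody display library were exposed to 10% biotinylated, detergent-solubilized Sf9 membrane reagent at 4 °C for 1 hour. FACS followed streptavidin microbead enrichment, using low and high (top ~1%) gates for expression (anti-HA) and reagent binding (streptavidin). Colony PCR, MiSeq 2 × 250 sequencing and CDR-length filtering followed. Labels for polyreactivity reflect the gate of origin.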

Sequence | polyreactivity (PSR sort gate)
QVQLVESGGGLVQAGGSLRLSGAASGSTFYPNAMGRYRQAPGKERELVAAISGRGGRTYYADSVKGRFTISRDFAKNTVYLQINSLKPEDTAVYYCNIVRASDHYDYWGQGTQVTVSS | high polyreactivity
QVQLVESGGGLVQAGGSLRLSCSASGSTFSAYVMGWYRQAPGKERKLVAAITRSGVSTYYADSVKGRFTISRDNAKNTVYLQMNSLKPEDTAVYYCNKRVGFLYKYDYWGQGTQVTVSS | high polyreactivity
QVQLVESGGGIVQAGGSLRLSCAASGFTFDIYAMGWYRQAPGTERELVATISFTGDTTSYADSVKGRFTISRDNAKNTVYLQMNSLKPEDTAVYYCAADGSYPLSVGRENLHYAEFDYWGQGTQVTVSS | low polyreactivity
QVQLVESGGGLVQAGGSLRLSCAASGSTFSRNAMGWSRQAPGKERELVAAISYRGGSTYYADSVKGRFTISRDNAKNTVYLQMNSLKPEDTAVYYCNADVGWRAPDYGGYDYWGQGTQVTVSS | high polyreactivity
QVQLVESGGCLVQAGGSLRFSCAASGLTLFRYAMGWYRQAPGKERELVAAIDYGGGTYYADSVKGRFRISRDNAKNTVYLQMNSLKPEDTAVYYCAVEPEYKYYEGDYWGQGTQVNVSS | low polyreactivity
QVQLVESGGGLVQAGGSLRLSCAASGRTFQVYAMGWYRQAPGKERELVAAISLTGGGTYYADSVKGRFTISRDNAKNTVYLQMNSLKPEDTEVYYCAVRRRTHLGFLYEYWGQGTQVTVSS | high polyreactivity
QVQLVESGGGLVQAGGSLRLSCAASGSTFDDNAMGWYRQAPGKERELVASITYRGGSTYYADSVKGRFTISRDNAKNTVYLQMNSLKPEDTAVYYCAKGHYFKYDYWGQGTQVTVSS | low polyreactivity
QVQLVESGGGLVQAGGSLRLSCAASGFIIGLYAMGWYRQAPGKERELVAAISGSGGSTYYADSVKGRFTISRDNAKNTVYLQMNSLKPEDTAVYYCNGAHGVHTYVYRYCYWGQGTQVTVSS | low polyreactivity
QVQLVESGGGLVQAGGSLRLSCAASGSILVDNAMASYRQAPGKERELVARITGSGGSTYYADSVKGRFTISRDNAKNSVYLQMHILKPEDTAVYYCAARRVNAGWTYGLRGNYWGQGTQVTVSS | low polyreactivity
QVQLVESGGGLVQAGGSLRLSCAASGFTFSTYAMGWYRQAPGKERELVAAISGSGGRTYYADSVKGRFKISRDNAKNTVYLQMNSLKPEDTAVYYCAALTYSTVLGFDYWGQGTQVTVSS | high polyreactivity
QVQLVQSGGGLVQAGGSLRLSCAASGSIIGTYAMGCYRQAPGKERELVADINSGGSTYYADSVKGRFTISRDNAKNTVYLQMNSLKPDDTAVYYCAATGGVLYGTWLSYDRWGGGYWGQGTQVTVSS | low polyreactivity
QVQLVESWVGLVQAGGSLSLSCDASGFTILGYAMGWYRQAPGKERELVASITYGGDSTYYADSVKGRFTISRDNAKNTVYLQINCLKPEDTAVYYCNARPSYWWGGRLYGYWGQGSQVTVSS | high polyreactivity
QVQLVESGGGLVQAGGSLRLSCAASGFIIYGYVMGWYRQAPGKERELVAAINSSSGRTYYADSVKGRFTISRDNAKNTVYLQMKSLKPEDTAVYYCAAYYYGSYDGTPYDYWGQGTQVTVSS | low polyreactivity
QVQLVESGGGLVQAGGSLRLSCAASGSIFQQYDRGWYRQAPGKDREFVAAISSSGGSTYYADSVKGRFTISRDNAKNTDYLQMKSLKAEDSAVYYCAVDTIGYTYVDYLHGSGEFGYWGQGTQVTVSS | low polyreactivity
QVQLVESGGGLVQAGGSLRLICAASGLIFWRNAMGWYRQAPGKERELVAAISRTGGNTYYADSVKGRFTISRDNAKNTVYLQMNSLKPEDTAVYYCAKDVGKGYGAYPLDYWGQGTQVTVSS | low polyreactivity
QVQLVESGGGLVQAGGSLRLSCAASGSILNIYTMGWYRQAPGTERELVAAITSGDITYYADSVKGLFTISRDNAKNTVYLQMISLKPEDTAVYYCAADASSQINEWLSYGEGYNYWGQGTQVTVSS | low polyreactivity
QVQLVESGGGLVQAGGSLRLSCAASGSTFTPYAMGWYRPAPGKEREFVAAITSIGGSTYYADSVKGRFTISRDHAKFTVYLQMNSLKPEDTAVYYCAADYYEWSLWNDYWGQGTQVTVSS | high polyreactivity
QVQLVESGGGLVQAGGSLRLSCAASGSIFHRYAMGWYRQAPGKERELVAAISRRGGSTYYADSVKGRFTISRDNAKNTVYLQMNSLIPVDTAVYYCNASLAGSSGRNRFEYWGQGTQVTVSS | high polyreactivity
QVQLVESGGGLVQAGGSLRLSCAASGSIFYENAMGWYRQAPGKERELVAAISRSGGSTYYADSVKGRFTISRDNAKNTVYLQMNSLKPEDTAVYYCAADVYVFIGDYWGQGTQVTVSS | low polyreactivity
QVQLVESGGVLVQAGGSLRLSCAASGRIFGDNAMGWYRHAPGKERELDADIDSGGRTNYADSVKVRFTISLDNAKNTVYLQMNSLKPEDTAVYYCGRDDIAYLVEYDYWGQGTQVTVSS | low polyreactivity
QVHLVETGGCLVQAGGSLRLSCAASGRTFYQNTMGWYRQAPGKERELVAAISSGGSTHYADSVKGRFTISRDNAKNTVYLQMNSLKPEDTAVYYCAKRYFYSYRYGYWGQGTQVTVSS | high polyreactivity
QFQLVESGGGLVQAGGSLRLSCAASGRTFKYNAMGWYRQAPGKERELVAAISSTGSTNYADSVKGRFTISRDNAKNTVYLQMNSLKPEDTAVYYSAARGLPSNYYYYVHGYIMYYWGQGTQVTVSS | low polyreactivity

Sequence | polyreactivity (PSR sort gate)
QVQLVESGGGLVKAGGSLRLSSAASGYNTNTYAMGWYRQAPGKERELVAAISGSGGSTYYADSVKGRFTMSRDNAKTTVYLQMNSLKPEDTAVYYCNVVVRYPSAYDYWGQGTQVTVSS | high polyreactivity
QVQLVESGGGLVQAGGSLRLTCAASGSTFSKNGMGWYRQAPGKEREFVAAISGSGGSTYYADSVRGRFTISRDNAKNTVYLQMNSLKPEDTAVYYCAARRVWYYISAYGYWGQGTQVTVSS | high polyreactivity
QVQLVESGGGLVQAGGSLRLSCAASGRTFYRNAMGWYRQAPGKERELVAAITSSGASTYYADSVKGRFTISRDNAKNTVYLQMNSLKPEDTAVYYCAAKYVYSVGNYRYDYWGQGTQVTVSS | low polyreactivity
QVQLVDSGGGLVQAGGSLRLSCASSGFIFAVYAMGWYRQAPGKERELVARISWSGGSTYYADSVKGRFTISRDNAKNTVYLQMNSLKPEDTAVNYCWGQGTQVTVSS | low polyreactivity
QVQLVESGGGLVQAGGSLRLSCAASGRTFWANAMGWYRQAPGKERELVAAITIGGRTYYADSVKGRFTISRDNAKNTVYIQMNSLKPEDTAVYYCNAGSRRPFPAESGYWGQGTQVTVSS | low polyreactivity
QVQLVESGGGLVQAGGSLRLRCAASGIIFPYYTMGGYRQAPGKERELVARITNGGRTYYADSVKGRFTISRDNAKNTVYLQMNSLKPEYTAVYYCIAGRYYIGGYWGQGTQVTVSS | high polyreactivity
QVQHVESGGGIVQAGGSLRLSCAASGITFSRKAMGRYRQATGKERELVATITSGGSTNYADSVKGRFTISRDNAKNTVYLQMNRLKPEDTAVYYCNAVWNTFISGRSYDYWGQGTQVTVSS | low polyreactivity
QVQLVESGGGLVQAGGSLRLSCAASARIFSQNAMGWYRQAPGKERELVAVISWSGVSTSYSDSVKGRFTISRDNAKNTVYLQMNSLKPEDTAVYYCAARRFYYYSRYPGYNSWGQGTLVTVSS | high polyreactivity
QVQLVESGGGLVQAGGSLRLSCAASGSTFLGNDMGWYRQEPGKERELVASINSATSTTYADSVKGRFTISRDNAKNTVYLQMNSLKPEDTAVYYCAARYYRPLDYWGQGTQVTVSS | low polyreactivity
QFQLVESGGGLVQAGGSLRLSCAASGRIFVRYAMGLYRKAPGKERELVAAISKSGGSTYYADSVKGRFTISRDNAKNTVYLQMNSLKPEDTAVYYCNALVRRRPGYIRYDYWGQGTQVTVSS | low polyreactivity
QVQLVESGGGLVQAGCRLRLSCAASGITFYSYAMGWYRQAPGKERELVAAITLTGGTTYYADSVKGRFTISRDNAKNTVYLQMNSLKPEDTAVSYCAAQYWWWSRFEYDSWGQGTQVTVSS | low polyreactivity
QVQLLESGGGLVQAGGSLRLSCAASGLTFTAYVMGWYRHAPGKERELVAAISGGGSTYADSVKGRFTISGDNAKNTVSLQMNSLKPEDTAVYYCNADGWGDRFWSNFRFDYWGQGTQVTVSS | low polyreactivity
QVQLVESGGGLVQAGGSLRLSCAASGGIFFSYAMGWYRQAPGKERELVAAIRTNGGTTYYADSVKGRFTISRDNAKNTVYLQMNSLKPEDTAVYYCAAKQFSVTLSNYWGQGTQVTVSS | low polyreactivity
QVQLVESGGGLVQARGSLRLSSAASGSTFVVNAMGWYRQAPGKERELVAAITQSGGSTFYADSVKGRFTISRVNAKNTVYLQMNSLQAEDTAVYYWGQGTQVTVSS | low polyreactivity
QVQLVESGGGLVQAGGSLRLSCAASGSILRRYAMGWYRQAPGKEREFVAAISYSGSRTYYADSVKGRFTISRDNAKNTVYLQMNSLKPEDTAVYYCAADSYGSRYEYWGQGTQVTVSS | high polyreactivity
QVQLVESGGGLVQAGGSLRLSCAASGSTFAIYAMGWYRQAPGKERELVAAITRGSTSYADSVKGRFTISRDNAKNTVYLQMNCLKPEDTAVYYCAAEYFLAQVYIYGYWGQGTQVTVSS | high polyreactivity
QVQLVESGGGLVQAGGSLRLSCAASGSIYSRNAMGWYRQAPGKERELVAGISTGGSTNYADSVKGRFTISRDNAKNTVYLQMNSLKPEDTAVYYCAAPLAYEGDYWGQGSQVTVSS | low polyreactivity
QVQLVESGGGLVQAGGCLRLSGAASVYTYRKYAMGWSRQAPGNERELVAAISASGGSTYYADSVKGRFTISRDKAKNTVYLPMNSLKPEDTAVYYCAKVPVTVYSRPFDYWGQGTQVTVSS | high polyreactivity
QVQLVESGGGLVQAGGSLRLSCPATGFTFSVYVMAWYRLAPGKERELVAAISSGGDTTYADSVKGRFTISRDNAKNTVYLQMNSLKPEDTAVYYCAAYRVILYYLYDYWGQGTQVTVSS | low polyreactivity
QVQLVESGGGLVQAGGSLRLSCAASGSTYIDYAMGWYRQAPGKERELVASIRYSGGGTYYADSVKGRFTISRDNAKNTVYFQMNSLKPEDTAVYYCAKDTHLLNEHSGTSREYDYWGQGTQVTVSS | low polyreactivity
QVQLVESGGGLVQAGGSLRLSCAASGRTFYYYAMGWYRQAPGKERELVAAITGSGANTYYADSVKGRFTISRDNAKNTVYLQMNSLKPEDTAVYYCNTRTLVAMGYWGQGTQVTVSS | high polyreactivity
